The data set deals with the molecule itself. In words: ITC. (In general: In ITC the heat of successive injections is recorded.)

The results in this text go back to paper PMC3097154 (2011).

B1: HIV-1 capsid CTD CTD (protein)
chain: not shown
A word on the Kd: it is the concentration at which binding is half-saturated. A high value points to weaker binding. The protein B1 registered a Kd of approximately 15 µM.
